Laboratory results: patent US20240150489A1 (ICHNOS SCIENCES, published 2024)
One block for each binder: values may come before it.

Experiments:
[1] = target: T1, human CD47-ECD-Avi-His (human); assay: SPR, CD47 amine-coupled, Fab analyte, 1:1 fit
T1 construct: also called recombinant human CD47-avi-his protein; recombinant human CD47 protein
Description: (§1) Surface plasmon resonance (SPR) was used to measure the binding affinities of the Fab fragments for human and cynomolgus monkey CD47. Affinities were measured on a Biacore T200 instrument (Biacore, GE Healthcare) at 25° C. and analyzed with the Biacore T200 Evaluation Software (v3.1). […] Recombinant human CD47 protein and recombinant cynomolgus monkey CD47 protein were covalently immobilized to around 50 RU on flow-path 2 and flow-path 4 respectively of the Sensor Chip surface using a commercially available amine coupling kit (Biacore, GE Healthcare, catalog NO: BR100050). […] Dissociation was monitored for 5 min. After each cycle, the Series S CM5 Sensor Chip surface coated with recombinant CD47 proteins was regenerated with 30 μl of 10 mM Glycine pH 1.5 (Biacore, GE Healthcare, catalog NO: BR100354). Experimental data were processed using the 1:1 Langmuir kinetic fitting model. Measurements included zero-concentration samples for referencing. Chi², U- and residual values were used to evaluate the quality of a fit between the experimental data and individual binding models.

[2] = target: T2, cynomolgus CD47-ECD-Avi-His (cynomolgus monkey); assay: SPR, CD47 amine-coupled, Fab analyte, 1:1 fit
T2 construct: also called recombinant cynomolgus monkey CD47-avi-his protein
T2 chain: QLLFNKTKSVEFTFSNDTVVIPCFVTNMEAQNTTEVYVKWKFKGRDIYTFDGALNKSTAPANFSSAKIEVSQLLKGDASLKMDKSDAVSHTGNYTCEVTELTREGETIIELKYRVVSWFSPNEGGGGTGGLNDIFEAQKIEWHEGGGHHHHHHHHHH
Description: as §1

[3] = target: T1, human CD47-ECD-Avi-His; assay: SPR; human CD47; value given in the text of paragraph 230
Description: as §1

[4] = target: T2, cynomolgus CD47-ECD-Avi-His; assay: SPR; cynomolgus monkey CD47; value given in the text of paragraph 230
Description: as §1

[5] = target: T3, recombinant biotinylated human CD38 Avitag, His Tag (Acrobiosystems, CD8-H82E7) (human, UniProt P28907 43-300, biotinylated (Avitag)); assay: SPR, biotinylated CD38 captured, Fab analyte, 1:1 fit;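 further: biacore T200 at 25 °C, single-cycle kinetics with Fab injected at 7.8–2000 nM for 3 min, dissociation followed 5 min, reference flow path subtracted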
T3 construct: Bought protein; also called biotinylated human CD38-avi-his protein; biotinylated recombinant human CD38 protein
Description: (§2) Surface plasmon resonance (SPR) was used to measure the binding affinities of the Fab fragments for human and cynomolgus monkey CD38. Affinities were measured on a Biacore T200 instrument (Biacore, GE Healthcare) at 25° C. and analyzed with the Biacore T200 Evaluation Software (v3.1).
(§3) The affinities to human and cynomolgus monkey CD38 were assessed by immobilizing CD38 and using Fab fragments as analyte. Biotinylated recombinant human CD38 protein was immobilized to around 160 RU on flow-path 2 of a Series S Sensor Chip SA or to around 100 RU on flow-path 2 of a Series S BiotinCAPture Chip and recombinant cynomolgus monkey CD38-his protein was immobilized to around 50-100 RU on flow-path 2 of a Series S CM5 Sensor Chip previously coated with anti-histidin antibody. Fab fragments were injected in single cycle kinetic at different concentrations ranging from 7.8 to 2000 nM, in HBS-EP+ buffer (Biacore, GE Healthcare, catalog NO: BR100669) at a flow rate of 30 μl/min for 3 min on flow-path 1 and 2 (flow-path 1 being used as reference). Dissociation was monitored for 5 min.

[6] = target: T4, recombinant cynomolgus monkey CD38-ECD-C-his (cynomolgus monkey, UniProt Q5VAN0 45-301); assay: SPR, His-captured cyno CD38, Fab analyte; NB = no detectable binding
T4 construct: Extracellular region fused to 6-His; also called cyno CD38-C-His; recombinant cynomolgus monkey CD38 protein
Description: as §2, §3

- Kd [1]: 0.878 µM
- Kd [2]: 0.939 µM
- Kd [3]: 0.104 µM
- Kd [4]: 0.142 µM
B1: anti-CD47-UCP01-H2 FAB (Fab, V domains shown)
VH: EVQLVESGGGLIQPGGSLRLSCAASGFTLSRNTMHWVRQAPGKGLEWVSVIYQSGVTRYADSVKGRFTISRDNSKNTLYLQMNSLRAEDTAVYYCARGRYGVAGGPGYAFDVWGQGTLVTVSS
VL: not shown
notes: human IgG1 Fab; also called anti-CD47-H2; anti-CD47-H2 Fab

- Kd [5]: 0.666 µM
- binding result [6]: no binding (tested: 2000 nM)
B2: Anti-CD38-UCP01-D1 Fab (Fab, V domains shown)
VH: QVQLVQSGAEVKKPGSSVKVSCKASGGIFNGYLISWVRQAPGQGLEWMGGIIPVNGLADYAQKFQGRVTITADESTSTAYMELSSLRSEDTAVYYCARTIGRYIIAFDYWGQGTLVTVSS
VL: not shown
notes: human IgG1 Fab
